Test results: patent publication US20080207488A1, “Method for Detecting Peptides Comprising a Cross-B Structure” (priority 2005, published 2008)

How the values were obtained:
[1] = target: human coagulation factor VIII isolated from healthy volunteers (Aafact) (human) (UniProt P00451); experiment: ELISA, therapeutic coated, tPA concentration series, one-site binding fit
[2] = target: tissue-type plasminogen activator (tPA) (human) (UniProt P00750); experiment: cell-based or functional assay

human coagulation factor VIII isolated from healthy volunteers (Aafact) (human), sequence (P00451 20-2351): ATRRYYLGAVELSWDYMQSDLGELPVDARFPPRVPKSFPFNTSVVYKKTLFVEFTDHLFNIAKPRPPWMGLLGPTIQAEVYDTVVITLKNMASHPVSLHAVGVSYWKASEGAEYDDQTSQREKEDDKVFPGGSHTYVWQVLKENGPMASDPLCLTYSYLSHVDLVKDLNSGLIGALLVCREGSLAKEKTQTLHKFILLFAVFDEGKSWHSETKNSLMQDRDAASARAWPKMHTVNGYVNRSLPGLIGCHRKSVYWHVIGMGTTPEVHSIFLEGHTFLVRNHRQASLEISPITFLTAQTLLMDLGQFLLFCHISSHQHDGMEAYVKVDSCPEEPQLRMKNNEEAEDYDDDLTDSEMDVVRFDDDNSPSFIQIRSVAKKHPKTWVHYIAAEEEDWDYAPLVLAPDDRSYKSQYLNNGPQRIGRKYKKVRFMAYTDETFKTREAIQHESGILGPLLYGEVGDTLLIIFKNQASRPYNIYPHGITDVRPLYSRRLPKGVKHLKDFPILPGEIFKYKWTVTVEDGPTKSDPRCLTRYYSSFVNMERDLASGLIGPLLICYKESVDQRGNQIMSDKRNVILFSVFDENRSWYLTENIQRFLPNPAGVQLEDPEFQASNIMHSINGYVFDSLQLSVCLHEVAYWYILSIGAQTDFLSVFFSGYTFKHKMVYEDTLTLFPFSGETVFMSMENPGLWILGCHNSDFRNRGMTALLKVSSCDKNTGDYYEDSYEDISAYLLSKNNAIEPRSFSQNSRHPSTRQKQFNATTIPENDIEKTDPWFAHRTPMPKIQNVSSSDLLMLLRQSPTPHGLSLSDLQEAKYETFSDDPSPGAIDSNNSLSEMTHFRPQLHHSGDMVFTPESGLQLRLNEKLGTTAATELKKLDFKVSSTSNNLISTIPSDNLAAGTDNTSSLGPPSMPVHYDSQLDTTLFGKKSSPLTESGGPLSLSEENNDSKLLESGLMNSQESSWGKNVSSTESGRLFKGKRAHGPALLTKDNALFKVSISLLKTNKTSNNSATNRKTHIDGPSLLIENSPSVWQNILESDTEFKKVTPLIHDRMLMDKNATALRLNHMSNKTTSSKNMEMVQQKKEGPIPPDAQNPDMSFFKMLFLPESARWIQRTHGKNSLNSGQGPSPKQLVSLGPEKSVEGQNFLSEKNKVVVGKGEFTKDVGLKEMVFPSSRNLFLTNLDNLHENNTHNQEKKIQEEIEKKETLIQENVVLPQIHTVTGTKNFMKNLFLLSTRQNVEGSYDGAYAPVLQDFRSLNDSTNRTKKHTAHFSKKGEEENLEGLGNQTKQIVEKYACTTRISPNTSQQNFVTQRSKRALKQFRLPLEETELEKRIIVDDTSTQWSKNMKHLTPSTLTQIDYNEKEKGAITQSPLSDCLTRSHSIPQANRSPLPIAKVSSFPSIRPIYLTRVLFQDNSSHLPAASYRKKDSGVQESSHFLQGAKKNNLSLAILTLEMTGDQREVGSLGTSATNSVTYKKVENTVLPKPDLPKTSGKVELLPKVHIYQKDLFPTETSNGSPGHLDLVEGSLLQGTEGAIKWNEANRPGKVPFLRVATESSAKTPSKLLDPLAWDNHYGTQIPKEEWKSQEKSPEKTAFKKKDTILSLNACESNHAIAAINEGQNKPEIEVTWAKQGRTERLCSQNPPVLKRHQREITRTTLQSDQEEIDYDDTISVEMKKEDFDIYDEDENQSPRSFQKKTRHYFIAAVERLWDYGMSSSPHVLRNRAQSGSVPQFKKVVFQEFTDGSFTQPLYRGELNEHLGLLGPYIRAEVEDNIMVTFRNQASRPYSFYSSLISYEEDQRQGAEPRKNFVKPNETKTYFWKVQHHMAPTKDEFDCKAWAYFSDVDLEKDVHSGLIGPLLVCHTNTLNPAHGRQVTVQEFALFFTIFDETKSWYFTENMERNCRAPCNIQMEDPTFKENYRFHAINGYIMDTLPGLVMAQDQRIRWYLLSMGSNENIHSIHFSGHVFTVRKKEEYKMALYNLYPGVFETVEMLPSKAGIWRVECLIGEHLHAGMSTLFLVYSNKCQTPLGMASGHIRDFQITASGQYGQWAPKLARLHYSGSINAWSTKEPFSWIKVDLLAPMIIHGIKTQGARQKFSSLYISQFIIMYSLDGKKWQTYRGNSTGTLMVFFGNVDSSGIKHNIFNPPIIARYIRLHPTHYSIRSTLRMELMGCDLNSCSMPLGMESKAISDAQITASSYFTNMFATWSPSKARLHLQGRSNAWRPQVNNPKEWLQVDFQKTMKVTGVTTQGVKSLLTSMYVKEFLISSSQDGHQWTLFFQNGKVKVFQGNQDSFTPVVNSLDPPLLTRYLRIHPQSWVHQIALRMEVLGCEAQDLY

tissue-type plasminogen activator (tPA) (from UniProt P00750 36-562) (enzyme)
Bmax (OD450 nm) [1]: 0.54 OD450 nm | Kd [1]: 230 nM

Etanercept (Enbrel) (Fc fusion)
tPA activation, Max. Activation (%) [2]: 0%

rapid acting human insulin analogue (NovoRapid Flexpen) (from UniProt P01308 90-110; P01308 25-54) (ligand)
tPA activation, Max. Activation (%) [2]: 70.9%

Epoietin Alfa (from UniProt P01588 28-192) (ligand)
tPA activation, Max. Activation (%) [2]: 0%

human coagulation factor VIII isolated from healthy volunteers (Aafact) (from UniProt P00451 20-2351)
tPA activation, Max. Activation (%) [2]: 4.22%

human glucagon (Glucagen) (from UniProt P01275 53-81) (peptide)
tPA activation, Max. Activation (%) [2]: 11.2%

human-murine chimeric monoclonal antibody (Remicade-infliximab)
tPA activation, Max. Activation (%) [2]: 0%
